Our source for the fold lower affinity to compete for the binding of Cry1Be and IC50 values is patent US20120324606A1.

Experiment [1] has as its target BBMV proteins (receptor binding sites) in brush border membrane vesicles from fall armyworm (FAW; Spodoptera frugiperda) larval midgut. Put plainly: heterologous competition: unlabeled Cry1Ab against 0.5 nM 125I Cry1Be on FAW BBMVs; reference is homologous Cry1Be.
Experiment [2] shares this target. Put plainly: homologous competition: unlabeled Cry1Ab against 0.5 nM 125I Cry1Ab on FAW BBMVs.
The target of experiment [3] is BBMV proteins (receptor binding sites) in brush border membrane vesicles from European corn borer (ECB; Ostrinia nubilalis) larval midgut. The experiment in a line: homologous competition: unlabeled Cry1Ab against 0.5 nM 125I Cry1Ab on ECB BBMVs.
Experiment [4] has as its target BBMV proteins (receptor binding sites) in brush border membrane vesicles from fall armyworm (FAW; Spodoptera frugiperda) larval midgut. Put plainly: heterologous competition: unlabeled Cry1Ab against 0.5 nM 125I Cry1Be on FAW BBMVs.

As a reminder, the IC50 is the midpoint of a concentration-inhibition curve. “Cry1Ab insecticidal protein (purified truncated Cry toxin) (from UniProt P0A370 29-612) (ligand)” came in with a fold lower affinity to compete for the binding of Cry1Be in experiment [1] of 500 fold. The IC50 in experiment [2] is 0.3 nM; in experiment [3] it was 0.5 nM; in experiment [4], 1000 nM.
